Tested on: MS2 coat protein
Assay: apparent KD of MS2 coat protein; designed switch direction (-1 OFF switch, 1 ON switch): -1; higher = weaker reporter binding
In short: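 Apparent KD, taken as the median over clusters for each design, was obtained by curve-fitting normalised cluster fluorescence. Designed RNA switches had been transcribed on Illumina chips by stalled E. coli RNA polymerase and titrated with SNAP-549-labelled MS2 coat protein, doubling from 0.7 or 1.5 nM to 3 µM.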

[1] = input ligand: microRNA oligo, concentration not stated
[2] = Eterna round: R95, input ligand: FMN 200 uM
[3] = Eterna round: R95, input ligand: microRNA oligo, concentration not stated
[4] = Eterna round: R95, input ligand: none

Sequence: UUUCGGCAUGUAGGAUAUGGGUCCGAUUAGGAUUUAGAAGGACAUGAGGAUCACCCAUGUGCAUUUAAUUGGUCAUUACCUUUU [EXclNG1-LROPPY10] (Eterna round: R96, puzzle: Exclusion NG 1)
- apparent KD of MS2 coat protein [1]: 46.5 nM

Sequence: GUGUGCUGAGGAUAUACAUAGGAAUAGAAUAGAAUAGAAUGACAUGAGGAUCACCCAUGUAGAAGGCAGAGUGU [Excluse me!! 13 - Jieux - Exclusion 2] (puzzle: Exclusion 2)
- apparent KD of MS2 coat protein [2]: 39.6 nM
- apparent KD of MS2 coat protein [3]: 21.4 nM
- apparent KD of MS2 coat protein [4]: 24.8 nM

Sequence: AAUUAAACAAGCAGAUCCCACAUGAGGAUCACCCAUGUGCUCGUCUUAUAAGGUACUGUGACAAAAGUCACGGUACC [Mat - Sensor, turn-off var - Eli Mod - D67] (Eterna round: R97, puzzle: Sensor, turn-off variant 1)
- apparent KD of MS2 coat protein (input ligand: FMN 200 uM): 47.9 nM
- apparent KD of MS2 coat protein (input ligand: none): 51.7 nM

Sequence: UUUAAUUUUUUUUUUUUACAAGCUUUUUGCUCGUCUUAUACAUGAGGAUCACCCAUGUGAAUGGGAAAUGAAUUAUC [JMF 96] (puzzle: Sensor v3, turn-off variant 2)
- apparent KD of MS2 coat protein [2]: 112 nM
- apparent KD of MS2 coat protein [3]: 268 nM
- apparent KD of MS2 coat protein [4]: 132 nM

Sequence: UAAUACAAGCAAAGAUCCUACAUGAGGAUCACCCAUGUGUUCGUCUUAUAAAGUACUAUCACGAAAGUGAUAGUACA [Mat - Sensor v3 - turn-off var 1 - Eli Mod - D79] (puzzle: Sensor v3, turn-off variant 1)
- apparent KD of MS2 coat protein [2]: 81.6 nM
- apparent KD of MS2 coat protein [3]: 12.3 nM
- apparent KD of MS2 coat protein [4]: 110 nM

Sequence: UAGCAUUGCCAAAGGUAGUGCUUUACAUGAGGAUCACCCAUGUAGGAUAUGGUAGGCAAAGCUUACCAGAAGGACAUGAUAAUU [Mat - Exclusion NG 3 - Mod of JL - D12] (Eterna round: R96, puzzle: Exclusion NG 3)
- apparent KD of MS2 coat protein (input ligand: FMN 200 uM): 167 nM
- apparent KD of MS2 coat protein [1]: 45.1 nM
- apparent KD of MS2 coat protein (input ligand: none): 56.1 nM

Sequence: GUCGUGCAGCUUUGCUGUACGAGUACAUGAGGAUCACCCAUGUAGGAUAUGGUACGCUUUGCGUGCCAGAAGGGCGUGCGUUGG [salish99_ExNG3_r04_005] (Eterna round: R96, puzzle: Exclusion NG 3)
- apparent KD of MS2 coat protein (input ligand: FMN 200 uM): 30.2 nM
- apparent KD of MS2 coat protein [1]: 24 nM
- apparent KD of MS2 coat protein (input ligand: none): 34.6 nM

Sequence: GUUUAGUGAGGAUAUGUGGCUUCGAUCGUGCGAAGGAGGCUACAGAAGGCACAUGAGGAUCACCCAUGUUCCUC [salish99_ex4_r4_302] (Eterna round: R97, puzzle: Exclusion 4)
- apparent KD of MS2 coat protein (input ligand: FMN 200 uM): 401 nM
- apparent KD of MS2 coat protein (input ligand: none): 37.1 nM

Sequence: UGUAGUUCAGGAUAUGAUGUAUAAUACAUGAGGAUCACCCAUGUAGAUCCUGAAUUUACAUCAGAAGGGAAUAUUU [JL-ex5-4.58 Brourd mod] (Eterna round: R97, puzzle: Exclusion 5)
- apparent KD of MS2 coat protein (input ligand: FMN 200 uM): 20.4 nM
- apparent KD of MS2 coat protein (input ligand: none): 15.4 nM

Sequence: UGCCGUAGAGGAUAUACAUUGAAUAAGAUUCAUGUAGAACUACAUGAGGAUCACCCAUGUAGAAGGCUAUGGCU [JL-ex2-4.38 Eli mod] (Eterna round: R97, puzzle: Exclusion 2)
- apparent KD of MS2 coat protein (input ligand: FMN 200 uM): 29.5 nM
- apparent KD of MS2 coat protein (input ligand: none): 16.9 nM

Sequence: GCUAGAGCAGGAUAUCGAGAUCCGCACAUGAGGAUCACCCAUGUACGGUCGAAAGACCGACGAGAAGGGCUCUAGC [Omei Ex5 E10] (Eterna round: R97, puzzle: Exclusion 5)
- apparent KD of MS2 coat protein (input ligand: FMN 200 uM): 178 nM
- apparent KD of MS2 coat protein (input ligand: none): 186 nM

Sequence: UACAUGAGGAUCACCCAUGUUUUGUCGUGUAUGGUACCCGUUUAGGAUAUCGUGUUAUUGGACCGCGAGAAGGAGAGUAUCAUU [Excl-NG3-LRO05] (Eterna round: R96, puzzle: Exclusion NG 3)
- apparent KD of MS2 coat protein (input ligand: FMN 200 uM): 24 nM
- apparent KD of MS2 coat protein [1]: 30 nM
- apparent KD of MS2 coat protein (input ligand: none): 31.6 nM

Sequence: AUGUGCACGCUGCGAUCCUACAUGAGGAUCACCCAUGUGGUCUGGUGGCGUGGGUCACCGGACUUGGCUCGUCUUGU [salish99_S_TOV1_R5_081] (Eterna round: R97, puzzle: Sensor, turn-off variant 1)
- apparent KD of MS2 coat protein (input ligand: FMN 200 uM): 62.1 nM
- apparent KD of MS2 coat protein (input ligand: none): 77.8 nM

Sequence: GGUGGACAUGAGGAUCACCCAUGUGAGGAUAUCGGCUGGCUAGCGGCGGACGGCUUCUCGAGAAGGCGCAUUGU [Exclusion 1 V83] (puzzle: Exclusion 1)
- apparent KD of MS2 coat protein [3]: 46.3 nM

Sequence: AUAAAACGUGUAGGAUAUGCGUGGCGAAGCUAUGCAGAAGGACAUGAGGAUCACCCAUGUUCAAGCGUCUGCGUACAGAUGCUA [JL eng1 1.35 mod 6] (Eterna round: R96, puzzle: Exclusion NG 1)
- apparent KD of MS2 coat protein (input ligand: FMN 200 uM): 16.9 nM
- apparent KD of MS2 coat protein [1]: 14.1 nM
- apparent KD of MS2 coat protein (input ligand: none): 14.5 nM

Sequence: AAGAAACGAGGAUAUACAAUUAAGAGAGAGAAGGAAAUGAGACAUGAGGAUCACCCAUGUAGAAGGCGUAAGAG [JR_Exclu2_Sub083] (puzzle: Exclusion 2)
- apparent KD of MS2 coat protein [2]: 28 nM
- apparent KD of MS2 coat protein [3]: 31.5 nM
- apparent KD of MS2 coat protein [4]: 28.2 nM

Sequence: CAUUAUGUUGAGGAUAUGCACCAGCUCACUGACGCAGAAGGCGACACAUGAGGAUCACCCAUGUCAGUUCGCGU [salish99_ex6_r004_429] (Eterna round: R97, puzzle: Exclusion 6)
- apparent KD of MS2 coat protein (input ligand: FMN 200 uM): 23.5 nM
- apparent KD of MS2 coat protein (input ligand: none): 17 nM

Sequence: CUGAGGUAGCGGUCCUAUGACAUGAGGAUCACCCAUGUACCUUGCUUUGAGCUUUAAGCUCGUCUUAUGAUUCUCGG [Mat - Sensor v3 - turn-off var 1 - JL Mod - D44] (puzzle: Sensor v3, turn-off variant 1)
- apparent KD of MS2 coat protein [2]: 504 nM
- apparent KD of MS2 coat protein [3]: 625 nM
- apparent KD of MS2 coat protein [4]: 861 nM

Sequence: AAUAACAGAGGAUAUACUAUUUUAUGUGUUUGUUAUUUUAAACAUGAGGAUCACCCAUGUAGAAGGCUGAGUAA [JMF 29] (puzzle: Exclusion 2)
- apparent KD of MS2 coat protein [3]: 21.9 nM

Sequence: AGCAGACGAGGAUAUGAUUAAUAAUACAUGAGGAUCACCCAUGUAAUACUGAUCUAUGGAUCAGAAGGCGUCUGCU [E5/6-A2] (Eterna round: R97, puzzle: Exclusion 5)
- apparent KD of MS2 coat protein (input ligand: FMN 200 uM): 12 nM
- apparent KD of MS2 coat protein (input ligand: none): 16.6 nM

Sequence: GCACGGAAUGCAGGAUAUCUGUGCGAUUAGCUCAGAGAAGGGCACAUGAGGAUCACCCAUGUGUAUAAAACACAAAAUCCGUGC [Eli exng1 - 067] (Eterna round: R96, puzzle: Exclusion NG 1)
- apparent KD of MS2 coat protein (input ligand: FMN 200 uM): 13.5 nM
- apparent KD of MS2 coat protein [1]: 7.71 nM
- apparent KD of MS2 coat protein (input ligand: none): 13.8 nM

Sequence: UAUAUGUAAGGAUAUCUCGUCAUGGAGGAAACUCCAUGACGAGAGAAGGUACAUGAGGAUCACCCAUGUCUAUU [Mod of Fisker 24 - Jieux - Exclusion 4] (Eterna round: R97, puzzle: Exclusion 4)
- apparent KD of MS2 coat protein (input ligand: FMN 200 uM): 117 nM
- apparent KD of MS2 coat protein (input ligand: none): 33.1 nM

Sequence: AAGAGGUCAGGAUAUUGGGCGGAAAGGGAAAGGAAAGGGCCCAAGAAGGGACAUGAGGAUCACCCAUGUAAGAA [Excls4-I] (puzzle: Exclusion 4)
- apparent KD of MS2 coat protein [2]: 38.5 nM
- apparent KD of MS2 coat protein [3]: 33 nM
- apparent KD of MS2 coat protein [4]: 35.4 nM

Sequence: UGCGGGCUUUUGAGACCUCACAUGAGGAUCACCCAUGUGCUUGUCUUGUGGGUGGGUAGGUCGUUGGCUGACUCACG [Sensor-V1 #98] (Eterna round: R97, puzzle: Sensor, turn-off variant 1)
- apparent KD of MS2 coat protein (input ligand: FMN 200 uM): 68.2 nM
- apparent KD of MS2 coat protein (input ligand: none): 68.9 nM

Sequence: CAGUACUGAGGAUAUACAUGAGGAUCACCCAUGUGUCUUAUAUUAGGAAACUAGGUAUGUAGAAGGCAGUACUG [Omei Ex3 Mod of Eli 4.27 v4] (Eterna round: R97, puzzle: Exclusion 3)
- apparent KD of MS2 coat protein (input ligand: FMN 200 uM): 304 nM
- apparent KD of MS2 coat protein (input ligand: none): 62.1 nM

Sequence: CCAUGGGAGCGAGGAUAUAGCCCAUGGGAAGAGCUAGAAGGCGCUGACAUGAGGAUCACCCAUGUGUUCAUGAGGAGGUGGACA (Eterna round: R96, puzzle: Exclusion NG 1)
- apparent KD of MS2 coat protein (input ligand: FMN 200 uM): 292 nM
- apparent KD of MS2 coat protein [1]: 128 nM
- apparent KD of MS2 coat protein (input ligand: none): 173 nM

Sequence: CAGUACUGAGGAUAUACAUGAGGAUCACCCAUGUGCUUCAGCUAGGAUACUAGCAUUAGUAGAAGGCAGUACUG [Fiskers Ex 3 828 mod 13] (puzzle: Exclusion 3)
- apparent KD of MS2 coat protein [3]: 11.3 nM

Sequence: CACCGUUAGUGAGGAUAUAGUACAUGAGGAUCACCCAUGUAAUAAAUGAGAAUUUCGGAUGUAUGCUAGAAGGCACAAAUCGGC [Ostricism 51 - Jieux - Exclusion NG 2] (Eterna round: R96, puzzle: Exclusion NG 2)
- apparent KD of MS2 coat protein [1]: 47.2 nM

Sequence: UUUUGGCAGGCAAUUAUUAACAUGAGGAUCACCCAUGUGCAUCCAAAAUUACUUUUAGAUCAAGCUCGUCUUAUAUA [JR_STOV1_Sub087] (Eterna round: R97, puzzle: Sensor, turn-off variant 1)
- apparent KD of MS2 coat protein (input ligand: FMN 200 uM): 29.9 nM
- apparent KD of MS2 coat protein (input ligand: none): 35.1 nM

Sequence: GGUGCGUAUGUGAGGAUAUGCUGGUCCUUGGAUCGGCAGAAGGCACAUGAGGAUCACCCAUGUGGUGUCGUACG [salish99_Bmod_ex4_078] (puzzle: Brourd's mod of Exclusion 4)
- apparent KD of MS2 coat protein [3]: 51.8 nM

Sequence: AAUAACAUGUUGAUCAAAGACAUGAGGAUCACCCAUGUCAGCUUUUUGUUCGUAGAUUAACACUAAUAAUAAUAAUA [Stov1new/2-C] (Eterna round: R97, puzzle: Sensor, turn-off variant 1)
- apparent KD of MS2 coat protein (input ligand: FMN 200 uM): 16.5 nM
- apparent KD of MS2 coat protein (input ligand: none): 16.5 nM

Sequence: UGAUCACAUGAGGAUCACCCAUGUCAGGAUAUCGUCACUGGAGCUUCGGCUCCAGUGACGAGAAGGGACAUAAU [E1/3-A1] (Eterna round: R97, puzzle: Exclusion 1)
- apparent KD of MS2 coat protein (input ligand: FMN 200 uM): 77.4 nM
- apparent KD of MS2 coat protein (input ligand: none): 141 nM

Sequence: UGAAAGUGAGGAUAUGGUGAGUAGUGCCUGAGCGCUGCUCACCAGAAGGCACAUGAGGAUCACCCAUGUAAAUG [Mat - Exclusion 4 - Mod of JL - D20] (puzzle: Exclusion 4)
- apparent KD of MS2 coat protein [3]: 38.9 nM

Sequence: GGUAUACAUGAGGAUCACCCAUGUCAGGAUAUGGAAACAUAUGCCGAAAGGCAUAUGGCCAGAAGGGACAAUAG [AK-MS2ROC-r4-exclusion1-5.1] (Eterna round: R97, puzzle: Exclusion 1)
- apparent KD of MS2 coat protein (input ligand: FMN 200 uM): 117 nM
- apparent KD of MS2 coat protein (input ligand: none): 77.5 nM
